Results as given in IntAct's records for PubMed 24520911.

B1: Lon protease homolog, mitochondrial (Homo sapiens), P36776 (parent)
chain: MAASTGYVRLWGAARCWVLRRPMLAAAGGRVPTAAGAWLLRGQRTCDASPPWALWGRGPAIGGQWRGFWEASSRGGGAFSGGEDASEGGAEEGAGGAGGSAGAGEGPVITALTPMTIPDVFPHLPLIAITRNPVFPRFIKIIEVKNKKLVELLRRKVRLAQPYVGVFLKRDDSNESDVVESLDEIYHTGTFAQIHEMQDLGDKLRMIVMGHRRVHISRQLEVEPEEPEAENKHKPRRKSKRGKKEAEDELSARHPAELAMEPTPELPAEVLMVEVENVVHEDFQVTEEVKALTAEIVKTIRDIIALNPLYRESVLQMMQAGQRVVDNPIYLSDMGAALTGAESHELQDVLEETNIPKRLYKALSLLKKEFELSKLQQRLGREVEEKIKQTHRKYLLQEQLKIIKKELGLEKDDKDAIEEKFRERLKELVVPKHVMDVVDEELSKLGLLDNHSSEFNVTRNYLDWLTSIPWGKYSNENLDLARAQAVLEEDHYGMEDVKKRILEFIAVSQLRGSTQGKILCFYGPPGVGKTSIARSIARALNREYFRFSVGGMTDVAEIKGHRRTYVGAMPGKIIQCLKKTKTENPLILIDEVDKIGRGYQGDPSSALLELLDPEQNANFLDHYLDVPVDLSKVLFICTANVTDTIPEPLRDRMEMINVSGYVAQEKLAIAERYLVPQARALCGLDESKAKLSSDVLTLLIKQYCRESGVRNLQKQVEKVLRKSAYKIVSGEAESVEVTPENLQDFVGKPVFTVERMYDVTPPGVVMGLAWTAMGGSTLFVETSLRRPQDKDAKGDKDGSLEVTGQLGEVMKESARIAYTFARAFLMQHAPANDYLVTSHIHLHVPEGATPKDGPSAGCTIVTALLSLAMGRPVRQNLAMTGEVSLTGKILPVGGIKEKTIAAKRAGVTCIVLPAENKKDFYDLAAFITEGLEVHFVEHYREIFDIAFPDEQAEALAVER
partner: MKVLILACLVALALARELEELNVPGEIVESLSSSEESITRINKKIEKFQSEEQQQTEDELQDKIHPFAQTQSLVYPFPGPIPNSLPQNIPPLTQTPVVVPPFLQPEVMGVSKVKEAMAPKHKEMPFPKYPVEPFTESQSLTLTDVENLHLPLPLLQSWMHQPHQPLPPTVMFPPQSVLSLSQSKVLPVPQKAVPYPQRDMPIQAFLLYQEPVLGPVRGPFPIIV

Variants of: B1
Settings: with casb_bovin CSN2, P02666

Variant	effect of a mutation on the interaction
K529R	decreasing interaction

Variants of: B1
Settings: with casb_bovin CSN2, P02666
Remark: another data set of the same source

Variant	effect of a mutation on the interaction
W770P	decreasing interaction

Variants of: B1
Settings: with casb_bovin CSN2, P02666
Remark: another data set of the same source

Variant	effect of a mutation on the interaction
G893P	decreasing interaction

Variants of: B1
Settings: with casb_bovin CSN2, P02666
Remark: another data set of the same source

Variant	effect of a mutation on the interaction
G894P	decreasing interaction

Variants of: B1
Settings: with casb_bovin CSN2, P02666
Remark: another data set of the same source

Variant	effect of a mutation on the interaction
G893P;G894A	decreasing interaction

Variants of: B1
Settings: with casb_bovin CSN2, P02666
Remark: another data set of the same source

Variant	effect of a mutation on the interaction
G893A;G894P	decreasing interaction
